Values belong to the molecule of their own block, whether it stands above or below them.
Key:
[1] = target: L-arabinose isomerase from Lactobacillus reuteri DSMZ 17509 (Lactobacillus reuteri); assay: SEC; 190 mL Sephacryl S300 column, 50 mM potassium phosphate buffer pH 7.0, 150 mM NaCl; molecular weight marker kit for gel filtration; oligomer size from the apparent mass against the calculated subunit mass
[2] = target: the molecule itself; assay: as above

stoichiometry N [1]: 6
Molecule: L-arabinose isomerase from Lactobacillus reuteri DSMZ 17509 (enzyme)

B1: D-xylose isomerase from Lactobacillus reuteri DSMZ 17509 (enzyme, UniProt Q5QG16 1-449, looked up)
chain: MADLWNNIDKIEYEGPHKSIKSGLFYQYYNPDEVILGKKMKDWLRFSVAYWHTFDQRLVDPFGDGTAQRPYDKYSDPMDCALAKVDYAFEFYNKLGVDFLCFHDRDLAPEGDTLRETNKNLDRVVDKIVEYQKATGMKVLWNTSNLFTNPRFLEGAGTAPSAEIYAYAAAQLKHSLEVGKRVGSENYVFWGGREGYESLWNTDMKREQSHIAKFFHMAKDYANEIGFDAQMLLEPKPKEPTTHQYDFDAATTINFMCEYGLDKDFKLNLEGNHANLAGHTYQHEIRVAREAGLLGSLDANQGDKLIGWDIDEYPSNLYETTAAMWEVIQNGSIGPRGGLNFDAKPRRTSFKPVDLFYGHIVGMDSFAAGLRVAAAMKEDGFLDDIIKERYSTWDEGLGKSIEDGNENFASLEEKVIDTPQSELLAATHSDHLEEIKDTINHYMIETLAK
stoichiometry N [2]: 4
